Measurements: patent publication US20250145711A1 (Janssen / Centocor, published 2025)

How the values were obtained:
[1] = target: T1, recombinant cynomolgus PSMA (cynomolgus, UniProt A0A2K5VNZ0 44-750); test: SPR (Biacore 8K), antibody captured on anti-Fc, PSMA in solution; average of 2
T1 construct: also called cy PSMA; cyno PSMA
Procedure: (§1) The binding affinity of anti-PSMA to the recombinant human or cynomolgus PSMA was determined by surface plasmon resonance (SPR) using a Biacore 8K instrument (ELN PSMA-00721). The antibodies were captured on a goat anti-Fc antibody-modified C1 chip and titrated with 3-fold serial dilutions of PSMA antigen spanning concentrations of 100 nM to 3.7 nM (human PSMA) or […] 22.2-600 nM for cyno PSMA. The association and dissociation were monitored for 3 and 60 minutes, respectively, using a flow rate of 50 μL/min. Raw binding data was referenced by subtracting the analyte binding signals from blanks and analyzed using a 1:1 Langmuir binding model by the Biacore Insight evaluation software to obtain the kinetics which were used to calculate the binding affinity. The anti-PSMA were captured using an anti-human Fc antibody and the antigens were injected in solution.

recombinant human PSMA = target: T2, recombinant human PSMA (human, UniProt Q04609 44-750); test: as above
T2 construct: also called hu PSMA; prostate-specific membrane antigen
T2 sequence (Q04609 44-750 limits assumed): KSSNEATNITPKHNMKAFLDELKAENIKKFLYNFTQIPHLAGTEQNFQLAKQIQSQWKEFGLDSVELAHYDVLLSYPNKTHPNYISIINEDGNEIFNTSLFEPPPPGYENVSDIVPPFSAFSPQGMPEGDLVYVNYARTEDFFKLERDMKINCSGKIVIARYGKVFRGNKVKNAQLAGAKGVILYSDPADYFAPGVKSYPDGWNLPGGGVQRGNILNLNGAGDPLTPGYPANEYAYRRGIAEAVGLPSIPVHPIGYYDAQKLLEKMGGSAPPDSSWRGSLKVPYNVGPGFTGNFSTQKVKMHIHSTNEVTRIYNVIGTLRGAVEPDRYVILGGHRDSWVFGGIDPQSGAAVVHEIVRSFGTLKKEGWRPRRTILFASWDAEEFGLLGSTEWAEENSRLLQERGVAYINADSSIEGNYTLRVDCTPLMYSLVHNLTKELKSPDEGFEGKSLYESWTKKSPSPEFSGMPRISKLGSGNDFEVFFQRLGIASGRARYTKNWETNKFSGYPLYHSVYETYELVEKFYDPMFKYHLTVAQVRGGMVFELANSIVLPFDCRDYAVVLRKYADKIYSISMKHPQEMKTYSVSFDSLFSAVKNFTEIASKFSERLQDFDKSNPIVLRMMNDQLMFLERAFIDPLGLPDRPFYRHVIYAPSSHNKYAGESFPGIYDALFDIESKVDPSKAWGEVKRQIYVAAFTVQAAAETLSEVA
Procedure: as §1

Row | Binder | Kd [1] [nM] | koff [1] [s⁻¹] | kon [1] [M⁻¹ s⁻¹] | Kd (recombinant human PSMA) [nM] | koff (recombinant human PSMA) [s⁻¹] | kon (recombinant human PSMA) [M⁻¹ s⁻¹]
1 | PS3B1508 (bispecific antibody, human IgG1, lambda, L234A L235A, HC1 (Knob3): CD3W245-LH-scFv; HC2 (Hole3-RF) PSMB896-G100A-Fab-RF: IgG1 AAS; LC1 is given as NA; also called PS3B1508.003) DIQMTQSPSSLSASVGDRVTITCRARQSIGTAIHWYQQKPGKAPKLLIKYASESISGVPSRFSGSGSGTDFTLTISSLQPEDFATYYCQQSGSWPYTFGQGTKLEIKGGSEGKSSGSGSESKSTGGSEVQLVESGGGLVKPGGSLRLSCAASGFTFSRYNMNWVRQAPGKGLEWVSSISTSSNYIYYADSVKGRFTFSRDNAKNSLDLQMSGLRAEDTAIYYCTRGWGPFDYWGQGTLVTVSSEPKSSDKTHTCPPCPAPEAAGGPSVFLFPPKPKDTLMISRTPEVTCVVVSVSHEDPEVKFNWYVDGVEVHNAKTKPREEQYNSTYRVVSVLTVLHQDWLNGKEYKCKVSNKALPAPIEKTISKAKGQPREPQVYTLPPSREEMTKNQVSLWCLVKGFYPSDIAVEWESNGQPENNYKTTPPVLDSDGSFFLYSKLTVDKSRWQQGNVFSCSVMHEALHNHYTQKSLSLSPGK heavy: EVQLVESGGGLVQPGGSLRLSCAASGFTFSSYAMSWVRQAPGKGLEWVSAISGGIGSTYYADSVKGRFTISRDNSKNTLWLQMNSLRAEDTAVYYCAKDAVGATPYYFDYWGQGTLVTVSSASTKGPSVFPLAPSSKSTSGGTAALGCLVKDYFPEPVTVSWNSGALTSGVHTFPAVLQSSGLYSLSSVVTVPSSSLGTQTYICNVNHKPSNTKVDKKVEPKSCDKTHTCPPCPAPEAAGGPSVFLFPPKPKDTLMISRTPEVTCVVVSVSHEDPEVKFNWYVDGVEVHNAKTKPREEQYNSTYRVVSVLTVLHQDWLNGKEYKCKVSNKALPAPIEKTISKAKGQPREPQVYTLPPSREEMTKNQVSLSCAVKGFYPSDIAVEWESNGQPENNYKTTPPVLDSDGSFFLVSKLTVDKSRWQQGNVFSCSVMHEALHNRFTQKSLSLSPGK light: QSVLTQPPSVSAAPGQKVTISCSGSSSNIGINYVSWYQQLPGTAPKLLIYDNNKRPSGIPDRFSGSKSGTSATLGITGLQTGDEADYYCGTWDSSLSAVVFGGGTKLTVLGQPKAAPSVTLFPPSSEELQANKATLVCLISDFYPGAVTVAWKADSSPVKAGVETTTPSKQSNNKYAASSYLSLTPEQWKSHRSYSCQVTHEGSTVEKTVAPTECS | 2.2 | 0.00323 | 1.46e+06 | 0.382 | 8.89e-05 | 232000
2 | PS3B1505 (bispecific antibody, human IgG1, lambda, L234A L235A, HC1 CD3B376-Fab x HC2 PSMB896-G100A IgG1 DuoBody; also called PS3B1505.001) heavy 1: QVQLQQSGPRLVRPSQTLSLTCAISGDSVFNNNAAWSWIRQSPSRGLEWLGRTYYRSKWLYDYAVSVKSRITVNPDTSRNQFTLQLNSVTPEDTALYYCARGYSSSFDYWGQGTLVTVSSASTKGPSVFPLAPSSKSTSGGTAALGCLVKDYFPEPVTVSWNSGALTSGVHTFPAVLQSSGLYSLSSVVTVPSSSLGTQTYICNVNHKPSNTKVDKKVEPKSCDKTHTCPPCPAPEAAGGPSVFLFPPKPKDTLMISRTPEVTCVVVSVSHEDPEVKFNWYVDGVEVHNAKTKPREEQYNSTYRVVSVLTVLHQDWLNGKEYKCKVSNKALPAPIEKTISKAKGQPREPQVYTLPPSREEMTKNQVSLTCLVKGFYPSDIAVEWESNGQPENNYKTTPPVLDSDGSFLLYSKLTVDKSRWQQGNVFSCSVMHEALHNHYTQKSLSLSPGK light 1: QSALTQPASVSGSPGQSITISCTGTSSNIGTYKFVSWYQQHPDKAPKVLLYEVSKRPSGVSSRFSGSKSGNTASLTISGLQAEDQADYHCVSYAGSGTLLFGGGTKLTVLGQPKAAPSVTLFPPSSEELQANKATLVCLISDFYPGAVTVAWKADSSPVKAGVETTTPSKQSNNKYAASSYLSLTPEQWKSHRSYSCQVTHEGSTVEKTVAPTECS heavy 2: EVQLVESGGGLVQPGGSLRLSCAASGFTFSSYAMSWVRQAPGKGLEWVSAISGGIGSTYYADSVKGRFTISRDNSKNTLWLQMNSLRAEDTAVYYCAKDAVGATPYYFDYWGQGTLVTVSSASTKGPSVFPLAPSSKSTSGGTAALGCLVKDYFPEPVTVSWNSGALTSGVHTFPAVLQSSGLYSLSSVVTVPSSSLGTQTYICNVNHKPSNTKVDKKVEPKSCDKTHTCPPCPAPEAAGGPSVFLFPPKPKDTLMISRTPEVTCVVVSVSHEDPEVKFNWYVDGVEVHNAKTKPREEQYNSTYRVVSVLTVLHQDWLNGKEYKCKVSNKALPAPIEKTISKAKGQPREPQVYTLPPSREEMTKNQVSLTCLVKGFYPSDIAVEWESNGQPENNYKTTPPVLDSDGSFFLYSRLTVDKSRWQQGNVFSCSVMHEALHNHYTQKSLSLSPGK light 2: QSVLTQPPSVSAAPGQKVTISCSGSSSNIGINYVSWYQQLPGTAPKLLIYDNNKRPSGIPDRFSGSKSGTSATLGITGLQTGDEADYYCGTWDSSLSAVVFGGGTKLTVLGQPKAAPSVTLFPPSSEELQANKATLVCLISDFYPGAVTVAWKADSSPVKAGVETTTPSKQSNNKYAASSYLSLTPEQWKSHRSYSCQVTHEGSTVEKTVAPTECS | 5.01 | 0.00124 | 429000 | 0.393 | 9.1e-05 | 232000
3 | PS3B1396 (bispecific antibody, human IgG1, lambda, L234A L235A, HC1 (Knob3): CD3B2030-N106A-scFv LH, HC2 (Hole3): PSMB896-G100A-Fab; LC1 is given as NA; also called PS3B1396.002) EIVLTQSPATLSASPGERVTLSCSASSSVSYMNWYQQKPGQAPRRWIYDSSKLASGVPARFSGSGSGRDYTLTISSLEPEDFAVYYCQQWSRNPPTFGGGTKVEIKGGSEGKSSGSGSESKSTGGSQVQLVQSGAEVKKPGSSVKVSCKASGYTFTRSTMHWVKQAPGQGLEWIGYINPSSAYTNYNQKFQGRVTLTADKSTSTAYMELSSLRSEDTAVYYCASPQVHYDYAGFPYWGQGTLVTVSSEPKSSDKTHTCPPCPAPEAAGGPSVFLFPPKPKDTLMISRTPEVTCVVVSVSHEDPEVKFNWYVDGVEVHNAKTKPREEQYNSTYRVVSVLTVLHQDWLNGKEYKCKVSNKALPAPIEKTISKAKGQPREPQVYTLPPSREEMTKNQVSLWCLVKGFYPSDIAVEWESNGQPENNYKTTPPVLDSDGSFFLYSKLTVDKSRWQQGNVFSCSVMHEALHNHYTQKSLSLSPGK heavy: EVQLVESGGGLVQPGGSLRLSCAASGFTFSSYAMSWVRQAPGKGLEWVSAISGGIGSTYYADSVKGRFTISRDNSKNTLWLQMNSLRAEDTAVYYCAKDAVGATPYYFDYWGQGTLVTVSSASTKGPSVFPLAPSSKSTSGGTAALGCLVKDYFPEPVTVSWNSGALTSGVHTFPAVLQSSGLYSLSSVVTVPSSSLGTQTYICNVNHKPSNTKVDKKVEPKSCDKTHTCPPCPAPEAAGGPSVFLFPPKPKDTLMISRTPEVTCVVVSVSHEDPEVKFNWYVDGVEVHNAKTKPREEQYNSTYRVVSVLTVLHQDWLNGKEYKCKVSNKALPAPIEKTISKAKGQPREPQVYTLPPSREEMTKNQVSLSCAVKGFYPSDIAVEWESNGQPENNYKTTPPVLDSDGSFFLVSKLTVDKSRWQQGNVFSCSVMHEALHNRFTQKSLSLSPGK light: QSVLTQPPSVSAAPGQKVTISCSGSSSNIGINYVSWYQQLPGTAPKLLIYDNNKRPSGIPDRFSGSKSGTSATLGITGLQTGDEADYYCGTWDSSLSAVVFGGGTKLTVLGQPKAAPSVTLFPPSSEELQANKATLVCLISDFYPGAVTVAWKADSSPVKAGVETTTPSKQSNNKYAASSYLSLTPEQWKSHRSYSCQVTHEGSTVEKTVAPTECS | 5.07 | 0.0019 | 587000 | 0.395 | 8.82e-05 | 224000
